Assay [1] addresses T1, activated human alfa-2-macroglobulin (α2M_MeNH2) (human, UniProt P01023 24-1474).
T1 construct: mature
T1 sequence (looked up): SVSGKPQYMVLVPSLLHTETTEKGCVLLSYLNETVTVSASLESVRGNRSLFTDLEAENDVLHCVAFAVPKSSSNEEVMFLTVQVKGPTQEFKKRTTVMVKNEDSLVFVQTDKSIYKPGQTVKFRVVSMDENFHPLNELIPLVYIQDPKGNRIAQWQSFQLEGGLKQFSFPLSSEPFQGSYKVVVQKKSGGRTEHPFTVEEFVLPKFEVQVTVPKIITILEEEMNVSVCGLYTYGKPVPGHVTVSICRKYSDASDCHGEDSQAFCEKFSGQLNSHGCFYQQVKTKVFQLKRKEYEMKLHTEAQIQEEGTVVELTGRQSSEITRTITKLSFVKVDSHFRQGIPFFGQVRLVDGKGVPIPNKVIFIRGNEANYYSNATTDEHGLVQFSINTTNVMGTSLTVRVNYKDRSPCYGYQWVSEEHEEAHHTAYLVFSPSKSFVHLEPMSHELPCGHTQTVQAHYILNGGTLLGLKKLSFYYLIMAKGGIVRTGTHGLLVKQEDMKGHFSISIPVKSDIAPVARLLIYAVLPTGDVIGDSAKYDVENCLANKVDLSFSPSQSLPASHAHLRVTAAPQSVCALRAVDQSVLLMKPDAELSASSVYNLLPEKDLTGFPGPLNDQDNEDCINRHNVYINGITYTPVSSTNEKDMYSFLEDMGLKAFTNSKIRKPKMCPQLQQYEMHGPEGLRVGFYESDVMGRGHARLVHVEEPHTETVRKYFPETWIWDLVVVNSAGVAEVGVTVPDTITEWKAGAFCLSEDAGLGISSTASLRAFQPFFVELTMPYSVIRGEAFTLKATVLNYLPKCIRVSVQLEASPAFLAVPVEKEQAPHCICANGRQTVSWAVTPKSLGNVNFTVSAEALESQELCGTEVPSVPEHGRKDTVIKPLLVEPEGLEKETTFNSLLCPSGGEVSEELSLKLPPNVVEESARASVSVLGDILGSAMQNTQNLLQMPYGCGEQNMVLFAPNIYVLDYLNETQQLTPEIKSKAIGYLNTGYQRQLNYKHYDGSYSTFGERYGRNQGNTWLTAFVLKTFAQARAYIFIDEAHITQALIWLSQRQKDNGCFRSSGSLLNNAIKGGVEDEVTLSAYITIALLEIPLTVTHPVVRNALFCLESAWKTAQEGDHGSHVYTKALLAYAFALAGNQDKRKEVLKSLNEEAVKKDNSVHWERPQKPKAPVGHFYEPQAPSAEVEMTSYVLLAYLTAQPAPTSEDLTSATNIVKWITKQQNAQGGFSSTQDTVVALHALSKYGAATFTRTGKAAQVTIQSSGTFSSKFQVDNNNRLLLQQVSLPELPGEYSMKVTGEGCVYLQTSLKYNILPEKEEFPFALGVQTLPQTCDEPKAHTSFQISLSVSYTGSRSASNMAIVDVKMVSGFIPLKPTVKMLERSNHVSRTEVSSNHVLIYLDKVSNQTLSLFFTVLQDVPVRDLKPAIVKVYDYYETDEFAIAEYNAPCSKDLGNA
The experiment in a line: competition ELISA, α2M* coated, DIIIE1PRSbiot as labelled ligand.

The target of assay [2] is recombinant Human Serum Albumin (rHSA) (human, UniProt P02768 25-609). The experiment in a line: SPR (Biacore X), CM5 chip, sLRP1-CIV immobilised on Fc1 and rHSA on Fc2, analyte at 100 nM. In general terms: SPR reads the build-up and loss of mass on a sensor chip optically.

B1: DIIIE1PRS alanine mutant, variant E375 (other)
chain: MDKLTLKGMSYVMCTGSFKLEKEVAETQHGTVLVQVKYEGTDAPCKIPFSTQDEKGVTQNGRLITANPIVTDKEKPVNIETEPPFGASYIVVGAGEKALKLSWFKKGSSIGVDHHHHHH
notes: also called Glu375 to Ala
In the case of B1, the “fold increase of IC50 against wild-type DIIIE1PRS” value (from here on “fold increase of IC50”) in assay [1] is at least 2 fold.

B2: DIIIE1PRS alanine mutant, variant R350 (other)
chain: MDKLTLKGMSYVMCTGSFKLEKEVAETQHGTVLVQVKYEGTDAPCKIPFSTQDEKGVTQNGALITANPIVTDKEKPVNIETEPPFGESYIVVGAGEKALKLSWFKKGSSIGVDHHHHHH
notes: also called Arg350 to Ala
For the molecule B2, the “fold increase of IC50” value in assay [1] was at least 2 fold.

B3: DIIIE1PRS alanine mutant, variant K385 (other)
chain: MDKLTLKGMSYVMCTGSFKLEKEVAETQHGTVLVQVKYEGTDAPCKIPFSTQDEKGVTQNGRLITANPIVTDKEKPVNIETEPPFGESYIVVGAGEAALKLSWFKKGSSIGVDHHHHHH
notes: also called Lys385 to Ala
Regarding B3, in assay [1], the “fold increase of IC50” value is over 10 fold and the “fold reduction of affinity against wild-type DIIIE1PRS” value is over 22 fold.

B4: DIIIE1PRS alanine mutant, variant N366 (other)
chain: MDKLTLKGMSYVMCTGSFKLEKEVAETQHGTVLVQVKYEGTDAPCKIPFSTQDEKGVTQNGRLITANPIVTDKEKPVAIETEPPFGESYIVVGAGEKALKLSWFKKGSSIGVDHHHHHH
notes: also called Asn366 to Ala
As to B4, in assay [1], the “fold increase of IC50” value was at least 2 fold.

B5: DIIIE1PRS alanine mutant, variant E342 (other)
chain: MDKLTLKGMSYVMCTGSFKLEKEVAETQHGTVLVQVKYEGTDAPCKIPFSTQDAKGVTQNGRLITANPIVTDKEKPVNIETEPPFGESYIVVGAGEKALKLSWFKKGSSIGVDHHHHHH
notes: also called Glu342 to Ala
Regarding B5, in assay [1], the “fold increase of IC50” value is at least 2 fold.

B6: DIIIE1PRS alanine mutant, variant V365 (other)
chain: MDKLTLKGMSYVMCTGSFKLEKEVAETQHGTVLVQVKYEGTDAPCKIPFSTQDEKGVTQNGRLITANPIVTDKEKPANIETEPPFGESYIVVGAGEKALKLSWFKKGSSIGVDHHHHHH
notes: also called Val365 to Ala
For B6, the “fold increase of IC50” value in assay [1] was over 10 fold.

B7: DIIIE1PRS alanine mutant, variant E362 (other)
chain: MDKLTLKGMSYVMCTGSFKLEKEVAETQHGTVLVQVKYEGTDAPCKIPFSTQDEKGVTQNGRLITANPIVTDKAKPVNIETEPPFGESYIVVGAGEKALKLSWFKKGSSIGVDHHHHHH
On to B7, for which the “fold increase of IC50” value in assay [1] is over 10 fold.

B8: DIIIE1PRS alanine mutant, variant G374 (other)
chain: MDKLTLKGMSYVMCTGSFKLEKEVAETQHGTVLVQVKYEGTDAPCKIPFSTQDEKGVTQNGRLITANPIVTDKEKPVNIETEPPFAESYIVVGAGEKALKLSWFKKGSSIGVDHHHHHH
notes: also called Gly374 to Ala
Regarding B8, in assay [1], the “fold increase of IC50” value was at least 2 fold.

B9: DIIIE1PRS alanine mutant, variant K363 (other)
chain: MDKLTLKGMSYVMCTGSFKLEKEVAETQHGTVLVQVKYEGTDAPCKIPFSTQDEKGVTQNGRLITANPIVTDKEAPVNIETEPPFGESYIVVGAGEKALKLSWFKKGSSIGVDHHHHHH
notes: also called Lys363 to Ala
As to B9, the “fold increase of IC50” value in assay [1] was at least 2 fold.

B10: DIIIE1PRS alanine mutant, variant T346 (other)
chain: MDKLTLKGMSYVMCTGSFKLEKEVAETQHGTVLVQVKYEGTDAPCKIPFSTQDEKGVAQNGRLITANPIVTDKEKPVNIETEPPFGESYIVVGAGEKALKLSWFKKGSSIGVDHHHHHH
With B10, the “fold increase of IC50” value in assay [1] is at least 2 fold.

B11: DIIIE1PRS alanine mutant, variant K361 (other)
chain: MDKLTLKGMSYVMCTGSFKLEKEVAETQHGTVLVQVKYEGTDAPCKIPFSTQDEKGVTQNGRLITANPIVTDAEKPVNIETEPPFGESYIVVGAGEKALKLSWFKKGSSIGVDHHHHHH
notes: also called Lys361 to Ala
Turning to B11, in assay [1], the “fold increase of IC50” value is over 10 fold.

B12: DIIIE1PRS alanine mutant, variant P364 (other)
chain: MDKLTLKGMSYVMCTGSFKLEKEVAETQHGTVLVQVKYEGTDAPCKIPFSTQDEKGVTQNGRLITANPIVTDKEKAVNIETEPPFGESYIVVGAGEKALKLSWFKKGSSIGVDHHHHHH
With B12, the “fold increase of IC50” value in assay [1] was over 10 fold.

B13: DIIIE1PRS alanine mutant, variant P372 (other)
chain: MDKLTLKGMSYVMCTGSFKLEKEVAETQHGTVLVQVKYEGTDAPCKIPFSTQDEKGVTQNGRLITANPIVTDKEKPVNIETEPAFGESYIVVGAGEKALKLSWFKKGSSIGVDHHHHHH
notes: also called Pro372 to Ala
Consider B13, for which the “fold increase of IC50” value in assay [1] was at least 2 fold.

B14: Receptor-Associated Protein (RAP) (ligand, UniProt P30533 35-357, looked up)
chain: YSREKNQPKPSPKRESGEEFRMEKLNQLWEKAQRLHLPPVRLAELHADLKIQERDELAWKKLKLDGLDEDGEKEARLIRNLNVILAKYGLDGKKDARQVTSNSLSGTQEDGLDDPRLEKLWHKAKTSGKFSGEELDKLWREFLHHKEKVHEYNVLLETLSRTEEIHENVISPSDLSDIKGSVLHSRHTELKEKLRSINQGLDRLRRVSHQGYSTEAEFEEPRVIDLWDLAQSANLTDKELEAFREELKHFEAKIEKHNHYQKQLEIAHEKLRHAESVGDGERVSRSREKHALLEGRTKELGYTVKKHLQDLSGRISRARHNEL
As for B14, the binding result in assay [2] is “no binding (tested: 100 nM)”.

For the origin of these results see US20170152290A1 (CENTRO DE INGENIERIA GEN TICA Y BIOTECHNOLOGIA, published 2017).
